In experiment [1] the target is T1, human CD73 (full length, on transfected CHOK1 cells) (human, UniProt P21589 27-549).
T1 sequence (looked up): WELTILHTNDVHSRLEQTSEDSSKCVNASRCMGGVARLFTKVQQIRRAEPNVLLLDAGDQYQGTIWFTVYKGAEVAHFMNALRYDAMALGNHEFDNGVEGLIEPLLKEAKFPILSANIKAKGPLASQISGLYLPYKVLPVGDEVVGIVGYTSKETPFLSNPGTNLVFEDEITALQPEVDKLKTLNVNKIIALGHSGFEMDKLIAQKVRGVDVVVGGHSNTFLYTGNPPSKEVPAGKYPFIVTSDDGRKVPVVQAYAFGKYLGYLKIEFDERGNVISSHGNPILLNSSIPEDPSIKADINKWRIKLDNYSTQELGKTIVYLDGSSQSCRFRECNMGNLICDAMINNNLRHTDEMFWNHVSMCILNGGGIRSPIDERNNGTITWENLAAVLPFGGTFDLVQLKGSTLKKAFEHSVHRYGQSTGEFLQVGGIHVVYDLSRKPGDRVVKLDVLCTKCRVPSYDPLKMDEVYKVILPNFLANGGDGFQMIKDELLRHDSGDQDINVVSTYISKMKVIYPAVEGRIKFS
Description: cell-based or functional assay.

The target in experiment [2] is T2, cynomolgus monkey CD73 (on transfected CHOK1 cells) (cynomolgus monkey, UniProt A0A2K5V5U7 27-549).
T2 construct: whole, on cells; also called CHOK1-cCD73; CHOK1-CCD73
T2 sequence: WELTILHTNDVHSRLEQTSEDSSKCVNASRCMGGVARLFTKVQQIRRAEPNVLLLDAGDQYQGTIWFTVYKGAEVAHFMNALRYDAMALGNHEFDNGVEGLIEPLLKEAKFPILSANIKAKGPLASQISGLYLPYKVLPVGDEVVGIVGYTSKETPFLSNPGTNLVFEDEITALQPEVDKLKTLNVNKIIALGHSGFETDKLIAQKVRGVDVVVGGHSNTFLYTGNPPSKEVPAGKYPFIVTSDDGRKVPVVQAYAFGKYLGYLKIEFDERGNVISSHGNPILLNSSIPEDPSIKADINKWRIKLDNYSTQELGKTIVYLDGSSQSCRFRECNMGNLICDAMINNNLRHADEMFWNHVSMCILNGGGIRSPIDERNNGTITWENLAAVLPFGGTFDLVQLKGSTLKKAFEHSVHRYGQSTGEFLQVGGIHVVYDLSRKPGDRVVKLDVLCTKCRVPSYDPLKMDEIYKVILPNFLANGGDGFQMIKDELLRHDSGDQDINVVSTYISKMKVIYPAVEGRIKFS
Description: FACS on CHOK1-cCD73 cells.

Experiment [3] concerns the target T3, murine CD73 (on transfected CHOK1 cells) (mouse, UniProt Q61503 29-551).
T3 construct: whole, on cells; also called CHOK1-mCD73; mCD73
T3 sequence (looked up): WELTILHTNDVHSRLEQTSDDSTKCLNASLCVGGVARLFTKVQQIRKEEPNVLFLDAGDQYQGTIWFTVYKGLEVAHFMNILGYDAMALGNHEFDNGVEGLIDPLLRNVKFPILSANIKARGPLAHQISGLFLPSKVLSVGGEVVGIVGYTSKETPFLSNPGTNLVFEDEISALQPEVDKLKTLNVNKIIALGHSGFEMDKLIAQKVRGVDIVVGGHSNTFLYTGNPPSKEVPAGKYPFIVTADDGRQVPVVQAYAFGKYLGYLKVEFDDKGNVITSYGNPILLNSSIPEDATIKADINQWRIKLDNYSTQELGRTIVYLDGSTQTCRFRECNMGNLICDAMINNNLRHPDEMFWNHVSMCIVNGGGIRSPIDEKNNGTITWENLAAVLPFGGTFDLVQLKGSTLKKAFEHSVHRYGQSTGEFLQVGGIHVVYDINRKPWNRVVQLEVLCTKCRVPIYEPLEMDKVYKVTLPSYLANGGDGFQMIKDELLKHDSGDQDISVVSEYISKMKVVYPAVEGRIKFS
Description: FACS on CHOK1-mCD73 cells.

Experiment [4] has as its target T4, His-tagged CD73 extracellular domain protein (hCD73 ECD-His) (human, UniProt P21589 27-547).
T4 construct: Expressed in CHO cells from pTT5-hCD73 ECD-His6, purified on nickel column; also called hCD73 ECD-His6; human CD73 ECD
T4 sequence: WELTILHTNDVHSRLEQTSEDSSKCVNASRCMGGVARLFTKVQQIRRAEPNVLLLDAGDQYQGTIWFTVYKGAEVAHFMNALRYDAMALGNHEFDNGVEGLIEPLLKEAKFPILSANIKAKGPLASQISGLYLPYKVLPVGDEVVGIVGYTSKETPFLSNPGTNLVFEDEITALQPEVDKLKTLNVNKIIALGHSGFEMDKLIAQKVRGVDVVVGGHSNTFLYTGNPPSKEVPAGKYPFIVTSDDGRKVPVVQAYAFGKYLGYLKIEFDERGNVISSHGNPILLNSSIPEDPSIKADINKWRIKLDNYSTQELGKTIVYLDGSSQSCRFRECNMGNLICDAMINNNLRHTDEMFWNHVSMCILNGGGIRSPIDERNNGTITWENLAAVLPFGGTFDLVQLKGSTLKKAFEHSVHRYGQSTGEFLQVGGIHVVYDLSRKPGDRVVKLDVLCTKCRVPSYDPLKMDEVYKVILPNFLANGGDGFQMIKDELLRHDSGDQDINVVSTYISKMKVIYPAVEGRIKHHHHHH
As to the kind of experiment: Octet BLI, antibody on AHC sensor, antigen 50-200 nM, 1:1 fit. The text has this:
Octet Red 96 was selected as the test instrument, and AHC biosensor was selected as the test sensor in this experiment. Anti-human IgG Fc antibody has been immobilized on the AHC sensor, which can be used to directly capture the 15 antibodies in this experiment. Then the sensor was immersed in the analysis sample (antigen). There were five steps in this experiment: 1, Baseline (120 s) 2, Loading (capture antibody) (300 s) 3, Baseline (120 s) 4, Association (binding antigen) (180 s) 5, Dissociation (antigen dissociation) (1200 s). After the test was completed, the regeneration buffer (Glycine PH1.5) and the neutralization buffer (1*PBS buffer) were alternately immersed for 5 seconds, and the sensor was regenerated by a total of five cycles. The maximum number of sensor regeneration times is 10. The running buffer in this experiment is the sample diluent (1*PBS buffer containing 0.02% Tween20 and 0.1% BSA), that is, the buffer used in the Baseline step, the Dissociation step, and the blank analyte sample. Four sensors are used at one running in this experiment.
Sample treatment: all the antibodies were diluted to the working concentration of 10 ug/ml with sample diluent (1*PBS buffer containing 0.02% Tween20 and 0.1% BSA), and the analyte samples (antigens) were diluted to three working concentrations: 200 nM, 100 nM and 50 nM.
For data analysis, Octet Data Analysis (version 7.0) was used to calculate the response signal value (the signal of the coupled analyte sample minus the signal of the blank analyte sample), and a 1:1 binding model was used to fit the data.

For experiment [5], the target named is T1, human CD73 (full length, on transfected …). Description: FACS on CHOK1-hCD73 cells.
Experiment [6] has the same target. As to the kind of experiment: cell-based or functional assay. This is another data set of the same source.
The target in experiment [7] is T3, murine CD73 (on transfected CHOK1 cells). As to the kind of experiment: FACS on CHOK1-mCD73 cells. The source holds these as a separate data set.
Experiment [8] addresses T2, cynomolgus monkey CD73 (on transfected …). As to the kind of experiment: FACS on CHOK1-cCD73 cells. This is another data set of the same source.
Experiment [9] concerns the target T1, human CD73 (full length, on transfected …). Description: FACS on CHOK1-hCD73 cells. The procedure:
The titration binding curve was produced by the following method:
The CHOK1 stable cell line transfected with human CD73 was expanded to a 75-90% confluence in a T-75 cell culture flask. The medium was aspirated, washed 1-2 times with PBS, and then treated with trypsin (Tryple express: Life technology) and cells were collected. The cells were washed with PBS buffer for 1-2 times. After counted, the cells were diluted with PBS to 1-2×10⁶ cells per ml, added with 1% fetal bovine serum (FBS) blocking solution, incubated on ice for 20-30 minutes, and then washed twice with HBSS by centrifugation. The collected cells were suspended with FACS buffer (PBS+2% FBS) to 2×10⁶ cells/ml, added to a 96-well FACS reaction plate at 100 microliters per well, and centrifuged at 300 g for 5 minutes to discard the supernatant. Anti-CD73 antibody was prepared with blocking solution to an initial concentration of 10 ug/ml and serially diluted at 8 points. 100 microliter per well of that antibody sample to be tested were added and incubated at 4° C. for 1-2 hours. […] The plate was washed 2-3 times with FACS buffer by centrifugation, added with 100 μl fixative solution (4% Paraformaldehyde) per well to suspend the cells. 5-10 minutes later, it was washed 1-2 times with FACS buffer by centrifugation. The cells were suspended with 100 microliters of FACS buffer, FACS (FACSCalibur, BD) was used for detection and the results were analyzed, as shown in FIG. 1 and Table 4.

Read-outs that look alike come from different tables or passages of the source.

B1: mab020xhIgG1TM (clone 24D6B4), mouse-human chimeric anti-CD73 antibody (antibody, V domains shown)
VH: EVQLQQSGPELVKPGASVKIPCKASGYTFTDYNMDWVKQRHGKSLEWIGDINPNNGGTVYNQKFKGKATLTVDKSSNTAYMELRSLTSEDTAVYYCARISGTGYWYFDVWGTGTTVTVSS
VL: DIQMTQSPASLSVSVGETVTITCRASENIYSNLAWYQQKQGKSPQLLVYGATNLADGVPSRFSGSDSGTQYSLKINSLQSEDFGSYYCQHFWGTPWTFGGGTKLEIK
notes: also called mAb020 chimeric antibody
As to B1, in experiment [1], the “Inhibition assay of enzyme activity, IC50” value worked out at 0.6 nM and the “Inhibition assay of enzyme activity, MAX % inhibition” value is 57.7%. For the same molecule, in experiment [2], the concentration for a half-maximal effect (EC50) was determined as 0.7 nM and the “MAX MFI fold” value was found to be 124 fold. In addition, in [3], the binding result was “no binding”. Further, in experiment [4], the Kd is 0.0751 nM, the dissociation rate constant (koff) came to 1.91e-05 s⁻¹ and the on-rate constant (kon) turned out to be 255000 M⁻¹ s⁻¹. Moreover, in [5], the EC50 stood at 1.6 nM and the “MAX MFI fold” value stood at 126 fold.

B2: mAb030 (clone 42A5A7), murine anti-CD73 antibody (antibody, V domains shown)
VH: DIQLQESGPGLVKPSQSLSLTCSVTGYSITSRYYWNWIRQFPGNKLEWMGYITYDDNNNYNPSLKNRISITRDTSKNQFFLKLNSVTPEDTATYYCARGGWDPFLYWGQGTLVTVSA
VL: DIQMTQSPASLSASVGETVTITCRASDNIYSYLAWYQQKQGKSLQLLVDSAKNLGEGVPSRFSGSGSGTQFYLKINSLQPEDFGVYYCQHYYGTPFTFGGGTKLELK
notes: Purified from hybridoma supernatant; also called antibody 030
B2: in experiment [6], the “Enzyme activity blocking assay, IC50” value was 0.1 nM and the “Enzyme activity blocking assay, MAX % inhibition” value came out at 74.6%. In [7], the binding result is “no binding (tested: 10 ug/ml initial concentration)”. Moreover, in experiment [8], the midpoint of the response, the EC50, lay at 0.4 nM and the “MAX MFI” value is 6310 MFI. Moreover, in experiment [9], the EC50 was 0.9 nM and the “MAX MFI” value was found to be 6440 MFI.

B3: mab032xhIgG1TM (clone 56F12H8), mouse-human chimeric anti-CD73 antibody (antibody, V domains shown)
VH: EVQLVESGGDLVKPGGSLKLSCAASGFTFSTHGMSWVRQTPDKRLEWVAIISSDRSDIDYTDNVKGRFTISRDNGKNTLYLQMSSLKSEDTAIYHCARHRGYDGFYYAMDYWGQGTSVTVSS
VL: DILMTQSPSSLTVTAGEKVTMSCRSSQSLLNSGNQKNYLTWYQQRPGRPPKLLIYWASTRISGVPDRFAGSGSGTDFTLTISIVQAEDLAVYYCQNDYSYPLTFGSGTKLELR
notes: also called mAb032 chimeric antibody
Consider B3, for which, in experiment [1], the “Inhibition assay of enzyme activity, IC50” value worked out at 0.3 nM and the “Inhibition assay of enzyme activity, MAX % inhibition” value is 65.1%. Also, in [2], the EC50 is 2.6 nM and the “MAX MFI fold” value was determined as 167 fold. Also, the binding result in [3] is “no binding”. In addition, in experiment [4], binding was put at a Kd of 0.279 nM, the koff is 1.95e-05 s⁻¹ and the kon worked out at 70000 M⁻¹ s⁻¹. Also, in experiment [5], it took 3.2 nM to reach a half-maximal effect (EC50) and the “MAX MFI fold” value amounted to 130 fold.

B4: mAb032 (clone 56F12H8), murine anti-CD73 antibody (antibody, V domains shown)
VH: EVQLVESGGDLVKPGGSLKLSCAASGFTFSTHGMSWVRQTPDKRLEWVAIISSDRSDIDYTDNVKGRFTISRDNGKNTLYLQMSSLKSEDTAIYHCARHRGYDGFYYAMDYWGQGTSVTVSS
VL: DILMTQSPSSLTVTAGEKVTMSCRSSQSLLNSGNQKNYLTWYQQRPGRPPKLLIYWASTRISGVPDRFAGSGSGTDFTLTISIVQAEDLAVYYCQNDYSYPLTFGSGTKLELR
notes: Purified from hybridoma supernatant
B4: in [6], the “Enzyme activity blocking assay, IC50” value is 1.2 nM and the “Enzyme activity blocking assay, MAX % inhibition” value came to 66.9%. The binding result in experiment [7] is listed as “no binding (tested: 10 ug/ml initial concentration)”. Also, in experiment [8], the response was half-maximal at 0.7 nM (EC50) and the “MAX MFI” value was 6050 MFI. Moreover, in experiment [9], the EC50 is 2.6 nM and the “MAX MFI” value stood at 7660 MFI.

In general, EC50 refers to the concentration giving half of the maximal effect. Broadly, the Kd is the concentration at which binding is half-saturated. What is called koff is the first-order rate constant of dissociation. The term kon denotes the rate constant with which the complex forms.
